Tested on: hippocampal-derived neural stem cells
Assay: Immunoblotting of differentiation markers (NeuN, GAD65/67, vGAT) in differentiating neural progenitor cells
Format: cell-based, rat
Method: To determine the optimal dose of MANF to promote the expression of differentiation markers in neural progenitor cells, immunoblotting experiments were performed using NeuN antibody that labels the nuclei of mature neurons, glutamic acid decarboxylase (GAD65/67) and vesicular […] (vGAT) that label GABAergic nerve cells.
Specifically, hippocampal-derived neural stem cells were isolated from the brain of E16 rat embryos. Hippocampal ridges were minced from the embryonic forebrains of E16 rats using sterile fine tweezers under a dissecting microscope. The tissues were collected, mechanically separated using a pipette in Ca^2+/Mg^2+-freeHBSS (Invitrogen) solution, and planted at 19,000 cells/cm^2 in 35 mm culture dishes precoated with 15 µg/ml poly-L-ornithine and 1 µg/ml fibronectin (Sigma). The cells were cultured under the condition of 5% CO2 for 3 days using a serum-free N2 medium (medium for proliferation) supplemented with 10 ng/mL basic fibroblast growth factor(bFGF, Invitrogen). Thereafter, the cells were removed using 0.05% trypsin/EDTA (ethylene-diamine-tetraacetic acid), and neural progenitor cells were planted on a 12 mm glass coverglass (Belco) for immunostaining and on a 100 mm dish for immunoblotting and cultured in N2 medium for proliferation containing bFGF for 1 day. Thereafter, in the proliferation condition, the medium continuously containing bFGF was treated with MANF at the indicated concentration and cultured for 2-3 days; and in the differentiation condition, MANF was added to the medium for differentiation not containing bFGF, which was cultured for 3-7 days. In the control group (vehicle), physiological saline was added in the same volume instead of MANF.
After 3-7 days of differentiation of the cultured neural stem cells, the medium was removed and washed once with PBS (Phosphate-buffered saline). Then, all the cells were lysed using a lysis buffer to which a protease inhibitor was added. The lysate was loaded in a 10% gel in the same volume, then transferred to a PVDF (Polyvinylidene Fluoride) membrane and blocked with 2% BSA in TBST or 5% skim milk in TBST at room temperature for 1 hour. As primary antibodies, rb-GAD65/67 (1:1000), mo-NeuN (1:1000), mo-Vgat (1:700), and mo-actin (1:2000) were used, and the primary antibodies were diluted with 2% BSA in TBST, reacted at 4° C. for 16 hours, and then washed with […]. As secondary antibodies, mo-HRP (1:5000) and rb-HRP (1:5000) were used, and the secondary antibodies were diluted in 2% skim milk in TBST or 2% BSA in TBST, reacted for 1 hour, and then developed on films. As control antibodies, mo-tubulin (Millipore, 05-661, 1:2000) and mo-actin (Santa cruz, SC-47778, 1:2000) were used.

[1] = MANF at 30 ng (tested 10-50 ng/ml), differentiation condition, vs vehicle

B1: MANF: one of 16 or more growth factors secreted into nerve stem cells by cerebrovascular cells; amino acid sequence of SEQ ID NO: 1 (protein)
chain: MRRMWATQGLAVALALSVLPGSRALRPGDCEVCISYLGRFYQDLKDRDVTFSPATIENELIKFCREARGKENRLCYYIGATDDAATKIINEVSKPLAHHIPVEKICEKLKKKDSQICELKYDKQIDLSTVDLKKLRVKELKKILDDWGETCKGCAEKSDYIRKINELMPKYAPKAASARTDL
modifications: MANF
For B1, the “NeuN protein increase (immunoblotting)” value [1] was 1.6 fold, the “amount of GAD65/67 protein increase (immunoblotting)” value [1] was “about 2.5 fold” and the “amount of vGAT protein increase (immunoblotting)” value [1] was “about 2.5 fold”. For the same molecule, the “optimal dose of MANF (NeuN, GAD65/67 and vGAT protein all increased the most)” value (tested 10-50 ng/ml) was 30 ng/mL.

— patent US20230363418A1, “COMPOSITION FOR PREVENTING OR TREATING NEUROPSYCHOLOGIC DISEASE, COMPRISING MANF” (CEFO CO., LTD., priority 2020, published 2023)
